Measured values published in patent publication US20260248877A1 (Universite de Rennes, priority 2021, published 2026).
“Also recorded” adds a separate entry of the source.

How the values were obtained:
[1] = Determination of the aggregative character of the peptides by sedimentation; assay type: physicochemical; conditions: sedimentation, Garnier-Delamarche representation
Description: (§1) After thawing, a pre-dilution in milli Q H2O filtered through 0.2 μm was carried out in order to obtain a solution at a concentration close to the working concentration, greater than 1.25 times. This stock solution was left to incubate for 1 hour in a water bath at 25° C., and was then assayed spectrophotometrically and adjusted to the final working concentration of 1.25 times. The polymerization was initiated by adding ¼ of the volume of 5× fibrillation buffer (50 mM MOPS, 750 mM NaCl, pH=7.2) for a final concentration of 1× fibrillation buffer (10 mM MOPS, 150 mM NaCl, PH=7.2). The samples were left to incubate for 1.5-2 hours at 25° C. in a water bath. The study of the polymerization by fluorimetry was carried out under the same conditions, except that the 5× polymerization buffer was supplemented with Thioflavin T (ThT) at 100 μM in order to be able to observe the fluorescence. • (a) Determination of the Aggregative Character of the Peptides. Once polymerized, the samples were ultracentrifuged at 100,000 g for 5 minutes at 25° C. (Beckman TL100, rotor TL-A100). The supernatants of each sample were then collected. An assay at 280 nm in triplicate of each supernatant was then carried out in the presence of 1% SDS. The concentration of the supernatant was determined using the Beer-Lambert law A=ε×1×C; ε (peptides)=1450 M^−1cm^−1. The concentration of sedimentable species in the pellet was then deduced by the difference: “total concentration of the sample—concentration of free peptide present in the supernatant”. • (b) Determination of the Amyloidogenic Character of the Peptides. Once the peptides have polymerized as previously indicated, 40 μL of peptides polymerized at a concentration of 400 μM and 800 μM were diluted in 360 μL of Thioflavin T (10 μM ThT, 1×MOPS) in a thermostatically controlled tank of 0.2×1 cm, to a final volume of 400 μL. The fluorescence of the sample was then measured immediately after dilution by recording a fluorescence spectrum (470 nm to 600 nm) at an excitation wavelength of 450 nm (Perkin Elmer LS 55, PM 750, slit10).
(§2) After prediction of their amyloidogenic character by bioinformatics, all the peptides were studied using biochemical techniques, namely sedimentation and fluorescence/ThT. The biochemical experiments were carried out at two peptide concentrations: 400 μM and 800 μM. Only the results obtained at 800 μM are presented. At this concentration, in sedimentation, the amount of sedimentable peptide after polymerization was measured and expressed as a percentage as a function of the total concentration. This value corresponds to the aggregative character of the peptides. On the other hand, the fluorescence test was used to determine their amyloidogenic character, the fluorescence value given corresponds to a normalization with respect to 1p, considering that its fluorescence is 100% (Table 4).

[2] = Determination of the amyloidogenic character of the peptides by Thioflavin T fluorescence; assay type: physicochemical; conditions: ThT fluorescence, Garnier-Delamarche representation
Description: as §1, §2

[3] = target: T1, PHF6 peptide (VQIVYK, 1p) (Homo sapiens, UniProt P10636); assay: Effects of the derived peptides on VQIVYK polymerization by spectrofluorimetry (ThT kinetics); assay type: biochemical
T1 construct: The polymerization of VQIVYK was initiated by adding ¼ of the volume of fibrillation buffer 5×

[4] = Polymerization kinetics of selected peptide alone (ThT spectrofluorimetry); assay type: physicochemical; conditions: 310 μM, ThT fluorescence
Description: After thawing, a pre-dilution of the peptides of interest in sterile water was carried out in order to obtain, for each peptide, a solution at a concentration close to the working concentration. The peptides were then left to incubate at 4° C. overnight. On the day of the experiment, the peptide solutions were sonicated for 10 minutes, left to stand for one hour at room temperature, sonicated again for 10 minutes and assayed spectrophotometrically at 280 nm (8=1450 M^−1cm^−1). The UV spectra were previously normalized to 0 at 300 nm. The solutions were prepared at concentrations of peptides ¼ above that desired in the end. The polymerization of VQIVYK was initiated by adding ¼ of the volume of fibrillation buffer 5× for a final concentration of fibrillation buffer 1× (10 mM MOPS, 150 mM NaCl, pH=7.2).
The analyses were carried out on a spectrofluorometer (LS 55 from Perkin Elmer) fitted with a 4-cell rack. Black quartz cells (0.2×1.0 cm) were used. […]
The results were first smoothed over 10 points with the “smooth” option of the KaleidaGraph software. […] Finally, the results of each kinetics were normalized relative to the fluorescence intensity of the 1p control after 100 minutes of polymerization considered to be 100%.

[5] = tested on: cells of the neuroblastoma line SH-SY5Y; assay: Growth of SH-SY5Y neuroblastoma cells (images); assay type: cell-based; conditions: 100 μM, 24 hours, 1×DMEM medium, 8% serum
Description: The effects of three hexapeptides classified as “therapeutic” (1tp, 4tp, 6tp) and of two peptides classified as “amyloid” (7tp and 1p) on the growth of cells of the neuroblastoma line SH-SY5Y were studied after 24 hours of treatment in the presence of a hexapeptide at a concentration of 100 μM in 1×DMEM medium, 8% serum. The results obtained are presented on FIG. 10(A).

Substance: YQIVVK (Ac-YQIVVK-NH2) [6tp]
- aggregative character (in words) [1]: weakly aggregative
- amyloidogenic character (in words) [2]: weakly amyloidogenic
- category of polymerization kinetics of 1p in the presence of peptide ([3]; [1p]=155 μM, [selected peptide]=310 μM): slow compared to 1p alone and which have a lower fluorescence intensity
- inhibitory effect on 1p (PHF6) polymerization (in words) ([3]; [1p]=155 μM, [selected peptide]=310 μM, thresholds 50% rate, 100% fluorescence intensity): clearly inhibited; also recorded: marked inhibitory effect; also recorded: with a strong inhibitory effect
- inhibitory effect over longer times ([3]; polymerization followed for 15 hours): the inhibitory effect persisted
- polymerization of the peptide on its own [4]: do not polymerize on their own
- effect on cell growth (number and appearance of cells) [5]: did not seem to have any effect
